From IntAct's records for PubMed 33513601

Molecular target: un13d_human UNC13D (UniProt Q70J99)
Sequence (Q70J99 whole entry): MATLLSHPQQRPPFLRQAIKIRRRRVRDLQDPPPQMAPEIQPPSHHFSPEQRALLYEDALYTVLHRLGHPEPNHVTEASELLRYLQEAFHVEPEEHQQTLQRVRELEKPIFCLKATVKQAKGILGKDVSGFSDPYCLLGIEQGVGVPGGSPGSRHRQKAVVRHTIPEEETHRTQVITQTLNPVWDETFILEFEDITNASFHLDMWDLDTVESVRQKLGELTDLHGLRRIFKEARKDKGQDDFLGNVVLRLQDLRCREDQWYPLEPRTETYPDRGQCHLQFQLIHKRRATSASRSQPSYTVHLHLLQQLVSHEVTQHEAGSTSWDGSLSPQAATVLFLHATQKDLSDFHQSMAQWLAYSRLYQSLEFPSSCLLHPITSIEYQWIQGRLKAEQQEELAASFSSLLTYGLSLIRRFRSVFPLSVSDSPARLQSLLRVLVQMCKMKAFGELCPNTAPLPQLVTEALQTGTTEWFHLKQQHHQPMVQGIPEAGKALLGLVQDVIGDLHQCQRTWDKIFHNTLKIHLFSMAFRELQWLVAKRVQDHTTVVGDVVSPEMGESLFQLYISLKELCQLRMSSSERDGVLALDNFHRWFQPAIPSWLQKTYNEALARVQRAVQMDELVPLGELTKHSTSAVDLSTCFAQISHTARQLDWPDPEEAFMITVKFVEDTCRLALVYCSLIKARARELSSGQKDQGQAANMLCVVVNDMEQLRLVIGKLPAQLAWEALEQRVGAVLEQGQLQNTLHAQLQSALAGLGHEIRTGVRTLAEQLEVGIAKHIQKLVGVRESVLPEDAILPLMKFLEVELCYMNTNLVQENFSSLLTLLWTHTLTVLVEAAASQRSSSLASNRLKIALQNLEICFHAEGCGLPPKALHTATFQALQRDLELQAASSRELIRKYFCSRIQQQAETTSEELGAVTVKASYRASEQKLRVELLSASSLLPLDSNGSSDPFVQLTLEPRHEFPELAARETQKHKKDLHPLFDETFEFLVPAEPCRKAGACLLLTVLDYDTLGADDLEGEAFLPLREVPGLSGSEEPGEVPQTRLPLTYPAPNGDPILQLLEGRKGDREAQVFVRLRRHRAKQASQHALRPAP

Rho-related GTP-binding protein RhoG (Homo sapiens), P84095 Q61L, sequence (P84095 whole entry Q61L): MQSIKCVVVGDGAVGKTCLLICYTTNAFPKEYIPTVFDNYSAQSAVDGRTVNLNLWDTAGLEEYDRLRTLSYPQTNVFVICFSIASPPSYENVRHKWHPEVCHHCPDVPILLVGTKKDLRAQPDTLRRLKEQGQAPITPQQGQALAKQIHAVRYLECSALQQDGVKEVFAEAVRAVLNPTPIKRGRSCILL

Substance: Rho-related GTP-binding protein RhoG (Homo sapiens), P84095 Q61L
- effect of a mutation on the interaction: with no effect
